Test results as given in FireProtDB (doi:10.1021/bi982427c).

Conditions: Bos taurus; pH 5.3; 5 °C; GdnHCl; Fluorescence; Sodium acetate 0.02 M; reversible: yes; whole UniProt chain shown

B1: Acyl-CoA-binding protein wild type, P07107 (protein)
chain: MSQAEFDKAAEEVKHLKTKPADEEMLFIYSHYKQATVGDINTERPGMLDFKGKAKWDAWNELKGTSKEDAMKAYIDKVEELKKKYGI
unfolding free energy: 7.89 kcal/mol
